Measurements as given in patent publication US20200040086A1 (BERLIN CHEMIE, published 2020).

Legend:
Assay in all cases: peptide microarray of 8mer LY75 peptides, LY75_A1 at 1 µg/mL, anti-human IgG Alexa 647
[1] = molecular target: T1, EVKDCRSF
T1 construct: 8mer of LY75 on the peptide microarray, chart Region 1
T1 peptide: EVKDCRSF
Protocol: (§1) The peptide microarray analysis was performed by LC Sciences, Houston Tex., in brief the method comprised the following steps:—Contiguous 8mer peptides of LY75 protein having […] spanning residues 216 to 1666 of the full length LY75 protein were synthesized and immobilized on a microarray chip. The chip comprised three panels such that the experiment was performed in triplicate. The microarray was addressed with LY75_A1 to identify the peptides to which the antibody bound. The binding assay was performed under the following conditions:—
(§2) The microarray comprising the contiguous peptides in triplicate was washed with 1 mL of binding buffer at 4° C. for 20 min. It was then incubated with 1 μg/mL LY75_A1 in binding buffer (pH 7.0) at 4° C. for 2 hrs. The array was again washed with 0.5 mL of washing buffer at 4° C. for 30 min then incubated with 25 ng/mL anti-human IgG Alexa 647 conjugate in binding buffer (pH 7.0) at 4° C. for 1 hr. The array was again washed with 0.5 mL of washing buffer at 4° C. for 30 min.

[2] = molecular target: T2, SERHFVSL
T2 construct: 8mer of LY75 on the peptide microarray, chart Region 6
T2 peptide: SERHFVSL
Protocol: as §1, §2

[3] = molecular target: T3, YSNFHPLL
T3 construct: 8mer of LY75 on the peptide microarray, chart Region 5
T3 peptide: YSNFHPLL
Protocol: as §1, §2

[4] = molecular target: T4, YLNNLYKI
T4 construct: 8mer of LY75 on the peptide microarray, chart Region 7
T4 peptide: YLNNLYKI
Protocol: as §1, §2

[5] = molecular target: T5, DHFTYSRY
T5 construct: 8mer of LY75 on the peptide microarray, chart Region 4
T5 peptide: DHFTYSRY
Protocol: as §1, §2

[6] = molecular target: T6, KGHCYKSD
T6 construct: 8mer of LY75 on the peptide microarray, chart Region 10
T6 peptide: KGHCYKSD
Protocol: as §1, §2

[7] = molecular target: T7, VSLCQKYS
T7 construct: 8mer of LY75 on the peptide microarray, chart Region 6
T7 peptide: VSLCQKYS
Protocol: as §1, §2

[8] = molecular target: T8, AVYFHQHS
T8 construct: 8mer of LY75 on the peptide microarray, chart Region 8
T8 peptide: AVYFHQHS
Protocol: as §1, §2

[9] = molecular target: T9, YSRYPWHR
T9 construct: 8mer of LY75 on the peptide microarray, chart Region 4
T9 peptide: YSRYPWHR
Protocol: as §1, §2

[10] = molecular target: T10, SRYPWHRF
T10 construct: 8mer of LY75 on the peptide microarray, chart Region 4
T10 peptide: SRYPWHRF
Protocol: as §1, §2

[11] = molecular target: T11, LSCYKVFH
T11 construct: 8mer of LY75 on the peptide microarray, chart Region 2
T11 peptide: LSCYKVFH
Protocol: as §1, §2

[12] = molecular target: T12, WHRFPVTF
T12 construct: 8mer of LY75 on the peptide microarray, chart Region 4
T12 peptide: WHRFPVTF
Protocol: as §1, §2

[13] = molecular target: T13, FVSLCQKY
T13 construct: 8mer of LY75 on the peptide microarray, chart Region 6
T13 peptide: FVSLCQKY
Protocol: as §1, §2

[14] = molecular target: T14, TSCSERHF
T14 construct: 8mer of LY75 on the peptide microarray, chart Region 6
T14 peptide: TSCSERHF
Protocol: as §1, §2

[15] = molecular target: T15, RWIQYKGH
T15 construct: 8mer of LY75 on the peptide microarray, chart Region 10
T15 peptide: RWIQYKGH
Protocol: as §1, §2

[16] = molecular target: T16, GSRWIQYK
T16 construct: 8mer of LY75 on the peptide microarray, chart Region 10
T16 peptide: GSRWIQYK
Protocol: as §1, §2

[17] = molecular target: T17, FTSCSERH
T17 construct: 8mer of LY75 on the peptide microarray, chart Region 6
T17 peptide: FTSCSERH
Protocol: as §1, §2

[18] = molecular target: T18, NGSRWIQY
T18 construct: 8mer of LY75 on the peptide microarray, chart Region 10
T18 peptide: NGSRWIQY
Protocol: as §1, §2

[19] = molecular target: T19, EFIYLRPF
T19 construct: 8mer of LY75 on the peptide microarray, chart Region 3
T19 peptide: EFIYLRPF
Protocol: as §1, §2

[20] = molecular target: T20, RRGWHFYD
T20 construct: 8mer of LY75 on the peptide microarray, chart Region 3
T20 peptide: RRGWHFYD
Protocol: as §1, §2

[21] = molecular target: T21, SRWIQYKG
T21 construct: 8mer of LY75 on the peptide microarray, chart Region 10
T21 peptide: SRWIQYKG
Protocol: as §1, §2

[22] = molecular target: T22, PWHRFPVT
T22 construct: 8mer of LY75 on the peptide microarray, chart Region 4
T22 peptide: PWHRFPVT
Protocol: as §1, §2

[23] = molecular target: T23, HFTYSRYP
T23 construct: 8mer of LY75 on the peptide microarray, chart Region 4
T23 peptide: HFTYSRYP
Protocol: as §1, §2

[24] = molecular target: T24, LTYSNFHP
T24 construct: 8mer of LY75 on the peptide microarray, chart Region 5
T24 peptide: LTYSNFHP
Protocol: as §1, §2

Measured: binding result

B1: LY75_A1 (antibody, V domains shown)
VH: EVQLVESGGGLVKPGGSLRLSCAASGFTYSNAWMSWVRQAPGKGLEWVGRIKSKTDGGTTDYAAPVQGRFTISRDDSKNTLYLQMNSLKTEDTAVYYCTIFGVVSFDYWGQGTLVTVSS
VL: DVQMTQSPSSLSASVGDRVTITCRASQSISDYLSWYQQRPGKAPNLLIYAASNLKTGVPSRFSGSGSGTDFTLTISTLQPEDFATYYCQQSYRSPWTFGQGTKVEIKR
notes: detected with anti-human IgG in the microarray; also called antibody LY75_A1; LY75_A1 monoclonal antibody
binds: all assays above
